These results are taken from article PMC8285493 (Nature Communications, 2021).

First the molecules themselves.
B1: catalytic domain of PDE3A (PDE3A^CAT), residues 640-1141 (domain or fragment, human, UniProt Q14432 640-1141, looked up)
chain: EDETECLREPLRKASACSTYAPETMMFLDKPILAPEPLVMDNLDSIMEQLNTWNFPIFDLVENIGRKCGRILSQVSYRLFEDMGLFEAFKIPIREFMNYFHALEIGYRDIPYHNRIHATDVLHAVWYLTTQPIPGLSTVINDHGSTSDSDSDSGFTHGHMGYVFSKTYNVTDDKYGCLSGNIPALELMALYVAAAMHDYDHPGRTNAFLVATSAPQAVLYNDRSVLENHHAAAAWNLFMSRPEYNFLINLDHVEFKHFRFLVIEAILATDLKKHFDFVAKFNGKVNDDVGIDWTNENDRLLVCQMCIKLADINGPAKCKELHLQWTDGIVNEFYEQGDEEASLGLPISPFMDRSAPQLANLQESFISHIVGPLCNSYDSAGLMPGKWVEDSDESGDTDDPEEEEEEAPAPNEEETCENNESPKKKTFKRRKIYCQITQHLLQNHKMWKKVIEEEQRLAGIENQSLDQTPQSHSSEQIQAIKEEEEEKGKPRGEEIPTQKPDQ
B2: biotinylated Avi-tagged PDE3A^CAT (domain or fragment, human, UniProt Q14432 640-1141, looked up)
chain: B1 chain
modifications: biotin on the Avi-tag (BirA ligase)
B3: full-length SLFN12 (natural protein, human, UniProt Q8IYM2 1-578, looked up)
chain: MNISVDLETNYAELVLDVGRVTLGENSRKKMKDCKLRKKQNESVSRAMCALLNSGGGVIKAEIENEDYSYTKDGIGLDLENSFSNILLFVPEYLDFMQNGNYFLIFVKSWSLNTSGLRITTLSSNLYKRDITSAKVMNATAALEFLKDMKKTRGRLYLRPELLAKRPCVDIQEENNMKALAGVFFDRTELDRKEKLTFTESTHVEIKNFSTEKLLQRIKEILPQYVSAFANTDGGYLFIGLNEDKEIIGFKAEMSDLDDLEREIEKSIRKMPVHHFCMEKKKINYSCKFLGVYDKGSLCGYVCALRVERFCCAVFAKEPDSWHVKDNRVMQLTRKEWIQFMVEAEPKFSSSYEEVISQINTSLPAPHSWPLLEWQRQRHHCPGLSGRITYTPENLCRKLFLQHEGLKQLICEEMDSVRKGSLIFSRSWSVDLGLQENHKVLCDALLISQDSPPVLYTFHMVQDEEFKGYSTQTALTLKQKLAKIGGYTKKVCVMTKIFYLSPEGMTSCQYDLRSQVIYPESYYFTRRKYLLKALFKALKRLKSLRDQFSFAENLYQIIGIDCFQKNDKKMFKSCRRLT

Data set [1] concerns the molecule itself. The data set can be described thus: SEC-MALS.
The target in a further data set is His6-MBP-SLFN12 (human, UniProt Q8IYM2 1-578). The data set can be described thus: pull-down.
The data set “AUC” concerns the molecule itself. Put plainly: AUC.
The target of the data set “full-length SLFN12” is B3. Put plainly: BLI.
Data set [2] has as its target B2. Put plainly: BLI.
Data set [3] addresses B1. Put plainly: SEC-MALS.
Data set [4] deals with the molecule itself. The data set can be described thus: SEC-MALS. The source holds these as a separate data set.

Read-outs that look alike come from different tables or passages of the source.

On to B1, for which the “stoichiometry N” value in “SEC-MALS [1]” is 2. Besides, the binding result in the data set with His6-MBP-SLFN12 is on record as “binds”. The dissociation constant Kd in the data set “AUC” turned out to be 40 nM.
For the molecule B2, the affinity with full-length SLFN12, expressed as Kd, was 320 nM.
On to B3, for which, in data set [2], the “KD with DNMDP” value turned out to be 65 nM. Besides, the “stoichiometry N” value was 1 SLFN12 per PDE3A^CAT (2:2) in data set [3] and 2 in “SEC-MALS [4]”. Moreover, binding in the data set “AUC” was put at a Kd of 870 nM.
